Biological target: the molecule itself
Test: SEC; GST fusion digested by TEV protease and loaded on an S75 column; molecular weight calculated from elution volume

B1: Ring finger domain of hMEX-3C (domain or fragment, human, UniProt Q5U5Q3 603-659, looked up)
chain: RRKHDCVICFENEVIAALVPCGHNLFCMECANKICEKRTPSCPVCQTAVTQAIQIHS
notes: two zinc ions per monomer; also called hMEX-3C Ring finger domain; hMEX-3C Ring homodimer; source: E. coli BL21 (DE3), purified (GST column, Superdex 75); GST fusion digested by TEV protease
  stoichiometry N: 2

Source: article PMC6194269, “Structural and functional characterization of hMEX‐3C Ring finger domain as an E3 ubiquitin ligase” (Protein Science : A Publication of the Protein Society, 2018)
